In patent US20240167007A1 (RHEINISCHE FRIEDRICH WILHELMS UNIVERSIT T BONN, published 2024):

Assays:
[1] = target: mannose 6-phosphate (M6P) receptor (MPR300) on human hepatoma cells (HuH7) (human), P11717; assay: cell-based or functional assay
[2] = target: the molecule itself; assay: size exclusion chromatography (Superdex 200), pH 7.0; self-association
Experimental: The indicated hASA-variants were separated by size exclusion chromatography using a Superdex 200 column (Amersham Pharmacia) linked to an Äkta FPLC system (GE Healthcare). The buffer was 150 mM NaCl, 20 mM Bis-Tris, pH 7.0. Fractions (0.5 ml) were collected and analysed on ASA activity using p-nitrocatechol sulfate as a substrate. Elution profiles of the four indicated hASA-variants are superimposed. While wildtype hASA presents as a dimer at neutral pH, E424A-mutants form octamers.

Sequence of mannose 6-phosphate (M6P) receptor (MPR300) on human hepatoma cells (HuH7) (human), P11717 (P11717 41-2491): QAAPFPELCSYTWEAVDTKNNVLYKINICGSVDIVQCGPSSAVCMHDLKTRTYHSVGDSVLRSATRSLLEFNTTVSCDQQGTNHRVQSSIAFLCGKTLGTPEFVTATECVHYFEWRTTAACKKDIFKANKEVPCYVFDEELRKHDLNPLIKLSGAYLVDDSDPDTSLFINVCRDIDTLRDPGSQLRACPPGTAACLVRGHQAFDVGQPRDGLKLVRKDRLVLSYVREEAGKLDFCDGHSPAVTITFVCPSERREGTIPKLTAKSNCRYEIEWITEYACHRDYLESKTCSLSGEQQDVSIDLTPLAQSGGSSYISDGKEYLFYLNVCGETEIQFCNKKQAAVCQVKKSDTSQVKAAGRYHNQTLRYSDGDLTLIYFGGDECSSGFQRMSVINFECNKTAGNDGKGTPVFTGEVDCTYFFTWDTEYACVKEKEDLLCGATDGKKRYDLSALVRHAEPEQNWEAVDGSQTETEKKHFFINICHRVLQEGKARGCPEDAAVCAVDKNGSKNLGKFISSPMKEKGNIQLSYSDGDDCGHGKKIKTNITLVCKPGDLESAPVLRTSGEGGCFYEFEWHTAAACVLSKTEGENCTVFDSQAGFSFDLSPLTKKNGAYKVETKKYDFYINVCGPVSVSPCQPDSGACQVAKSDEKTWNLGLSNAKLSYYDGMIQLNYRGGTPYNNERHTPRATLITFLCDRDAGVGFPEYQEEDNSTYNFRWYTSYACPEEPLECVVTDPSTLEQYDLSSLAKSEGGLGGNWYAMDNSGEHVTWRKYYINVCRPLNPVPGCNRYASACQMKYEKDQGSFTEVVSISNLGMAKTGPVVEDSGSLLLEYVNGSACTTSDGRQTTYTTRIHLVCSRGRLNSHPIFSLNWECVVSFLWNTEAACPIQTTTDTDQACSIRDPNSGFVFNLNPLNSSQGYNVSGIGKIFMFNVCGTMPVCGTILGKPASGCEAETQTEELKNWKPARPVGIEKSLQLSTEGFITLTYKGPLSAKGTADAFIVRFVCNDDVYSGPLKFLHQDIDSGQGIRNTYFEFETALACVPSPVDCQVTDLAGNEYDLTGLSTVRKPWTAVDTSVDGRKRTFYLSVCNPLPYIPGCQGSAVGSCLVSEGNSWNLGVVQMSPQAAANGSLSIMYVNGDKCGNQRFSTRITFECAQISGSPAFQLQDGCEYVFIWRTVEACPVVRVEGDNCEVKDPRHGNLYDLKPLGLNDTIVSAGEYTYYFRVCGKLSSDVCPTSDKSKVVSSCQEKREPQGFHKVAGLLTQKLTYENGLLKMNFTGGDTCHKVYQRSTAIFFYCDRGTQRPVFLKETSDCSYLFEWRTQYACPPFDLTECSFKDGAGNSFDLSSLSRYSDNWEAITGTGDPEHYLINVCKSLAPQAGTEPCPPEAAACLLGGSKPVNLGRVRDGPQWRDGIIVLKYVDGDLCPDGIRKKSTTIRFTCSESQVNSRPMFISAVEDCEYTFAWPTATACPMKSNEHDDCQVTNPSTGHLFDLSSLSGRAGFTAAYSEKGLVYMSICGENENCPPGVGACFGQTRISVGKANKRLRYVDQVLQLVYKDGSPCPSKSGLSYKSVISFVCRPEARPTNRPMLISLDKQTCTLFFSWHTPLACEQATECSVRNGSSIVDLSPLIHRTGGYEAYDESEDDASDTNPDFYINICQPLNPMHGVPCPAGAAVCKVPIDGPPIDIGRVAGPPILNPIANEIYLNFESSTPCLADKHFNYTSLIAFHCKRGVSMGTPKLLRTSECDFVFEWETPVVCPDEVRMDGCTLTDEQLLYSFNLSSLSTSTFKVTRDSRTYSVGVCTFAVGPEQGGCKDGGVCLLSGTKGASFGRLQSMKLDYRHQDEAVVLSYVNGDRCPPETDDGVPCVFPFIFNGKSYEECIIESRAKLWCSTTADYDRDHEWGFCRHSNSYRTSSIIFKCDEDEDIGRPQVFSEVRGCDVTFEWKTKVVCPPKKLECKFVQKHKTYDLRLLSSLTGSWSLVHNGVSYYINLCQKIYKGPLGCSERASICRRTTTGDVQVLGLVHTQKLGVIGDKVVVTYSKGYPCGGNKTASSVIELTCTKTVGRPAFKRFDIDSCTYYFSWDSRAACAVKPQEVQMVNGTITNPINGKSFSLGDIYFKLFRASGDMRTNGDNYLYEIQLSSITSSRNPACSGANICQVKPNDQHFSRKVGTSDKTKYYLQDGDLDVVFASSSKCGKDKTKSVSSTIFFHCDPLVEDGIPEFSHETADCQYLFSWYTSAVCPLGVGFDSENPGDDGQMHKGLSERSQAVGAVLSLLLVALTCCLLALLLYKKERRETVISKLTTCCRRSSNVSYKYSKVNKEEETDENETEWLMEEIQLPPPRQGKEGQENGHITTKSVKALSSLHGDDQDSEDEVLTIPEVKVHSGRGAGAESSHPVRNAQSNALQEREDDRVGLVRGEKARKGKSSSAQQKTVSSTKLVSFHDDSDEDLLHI

B1: hARSA-mutant E424A, P15289 19-507 (enzyme)
chain: RPPNIVLIFADDLGYGDLGCYGHPSSTTPNLDQLAAGGLRFTDFYVPVSLCTPSRAALLTGRLPVRMGMYPGVLVPSSRGGLPLEEVTVAEVLAARGYLTGMAGKWHLGVGPEGAFLPPHQGFHRFLGIPYSHDQGPCQNLTCFPPATPCDGGCDQGLVPIPLLANLSVEAQPPWLPGLEARYMAFAHDLMADAQRQDRPFFLYYASHHTHYPQFSGQSFAERSGRGPFGDSLMELDAAVGTLMTAIGDLGLLEETLVIFTADNGPETMRMSRGGCSGLLRCGKGTTYEGGVREPALAFWPGHIAPGVTHELASSLDLLPTLAALAGAPLPNVTLDGFDLSPLLLGTGKSPRQSLFFYPSYPDEVRGVFAVRTGKYKAHFFTQGSAHSDTTADPACHASSSLTAHAPPLLYDLSKDPGENYNLLGGVAGATPEVLQALKQLQLLKAQLDAAVTFGPSQVARGEDPALQICCHPGCTPRPACCHCPDPHA
B1 showed an uptake by the human hepatoma cell line HuH7, compared to wildtype hARSA (internalized enzyme by ELISA) [1] of 20%.

B2: wildtype human arylsulfatase A (enzyme)
chain: RPPNIVLIFADDLGYGDLGCYGHPSSTTPNLDQLAAGGLRFTDFYVPVSLCTPSRAALLTGRLPVRMGMYPGVLVPSSRGGLPLEEVTVAEVLAARGYLTGMAGKWHLGVGPEGAFLPPHQGFHRFLGIPYSHDQGPCQNLTCFPPATPCDGGCDQGLVPIPLLANLSVEAQPPWLPGLEARYMAFAHDLMADAQRQDRPFFLYYASHHTHYPQFSGQSFAERSGRGPFGDSLMELDAAVGTLMTAIGDLGLLEETLVIFTADNGPETMRMSRGGCSGLLRCGKGTTYEGGVREPALAFWPGHIAPGVTHELASSLDLLPTLAALAGAPLPNVTLDGFDLSPLLLGTGKSPRQSLFFYPSYPDEVRGVFAVRTGKYKAHFFTQGSAHSDTTADPACHASSSLTAHEPPLLYDLSKDPGENYNLLGGVAGATPEVLQALKQLQLLKAQLDAAVTFGPSQVARGEDPALQICCHPGCTPRPACCHCPDPHA
notes: Expressed in CHO cells and glycosylated; also called wildtype hARSA; wildtype hASA
B2: binds [2].
